Data from US20260242478A1 (published 2026).

B1: Phage-3925 (Peptide-180 library clone) (peptide)
peptide: NERFCEPAWMCHGF
notes: Tested as clonal phage supernatant; not shown: fused to the pIII filament protein of the bacteriophage
B2: Phage-3932 (Peptide-180 library clone) (peptide)
peptide: LNVECVPQWMCDGF
notes: as for B1
B3: Phage-3894 (peptide)
peptide: DLQMCLPKWMCVGF
notes: tested as crude clonal phage supernatant
B4: Phage-3926 (Peptide-180 library clone) (peptide)
peptide: VERFCEPAWMCIGL
notes: as for B1
B5: Phage-3889 (peptide)
peptide: IDTLCVPWWMCSGF
notes: as for B3
B6: Phage-3892 (peptide)
peptide: DYWYCQPAWMCTGL
notes: as for B3
B7: Phage-3931 (Peptide-180 library clone) (peptide)
peptide: PTIMCIPVWMCQAF
notes: as for B1
B8: Phage-3893 (peptide)
peptide: LVPRCLPEWMCTGF
notes: as for B3
B9: Phage-3884 (peptide)
peptide: TEPACVPPWMCVGW
notes: as for B3
B10: Phage-3885 (peptide)
peptide: GMVRCVPDWMCYGF
notes: as for B3
B11: Phage-3933 (Peptide-180 library clone) (peptide)
peptide: YTQACTPSWMCHGF
notes: as for B1
B12: Phage-3895 (peptide)
peptide: EWIMCTPPWMCHGF
notes: as for B3
B13: Phage-3887 (peptide)
peptide: ILRHCTPEWMCIGL
notes: as for B3
B14: Phage-3888 (peptide)
peptide: LQIRCQPVWMCHGF
notes: as for B3
B15: Phage-3927 (Peptide-180 library clone) (peptide)
peptide: SMQKCVPSWMCAGF
notes: as for B1
B16: Phage-3883 (peptide)
peptide: VDYVCRPSWMCSGI
notes: tested as crude phage supernatant; The number 3883 of the label stands in r4366
B17: Phage-3928 (Peptide-180 library clone) (peptide)
peptide: WDLLCSPPWMCAGM
notes: as for B1
B18: Phage-3897 (peptide)
peptide: LTLKCAPAWMCNGF
notes: as for B3
B19: Phage-3886 (peptide)
peptide: TEHQCVPAWMCGGF
notes: as for B3
B20: Phage-3891 (peptide)
peptide: VVYTCVPSWMCTGL
notes: as for B3
B21: Phage-3890 (peptide)
peptide: DQHACRPEWMCVGF
notes: as for B3
B22: Phage-3929 (Peptide-180 library clone) (peptide)
peptide: TWSICEPRWMCEGF
notes: as for B1
B23: Phage-3896 (peptide)
peptide: PDVHCVPRWMCDGL
notes: as for B3
B24: Phage-3930 (Peptide-180 library clone) (peptide)
peptide: QLLRCVPPWMCEGF
notes: as for B1

Key:
[1] = target: T1, PSMA Fab (006 PSMA Fab); experiment: phage binding ELISA; biotinylated PSMA Fab on neutravidin plate, clonal phage supernatant, anti-M13 HRP detection;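 note: wells were preincubated with blocking buffer either containing PSMA antigen or without it before crude phage supernatant was added, briefly incubated, then washed prior to detection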
T1 construct: also called Anti-PSMA Fab; anti-PSMA Fab
Method: (§1) Clonal phage were harvested as crude supernatants and screened via standard ELISAs. […] Prior to the addition of clonal phage. wells were incubated with blocking buffer and PSMA antigen or blocking buffer alone. Without washing or aspirating, clonal phage supernatants were then added to the wells and incubated for a short time. Wells were then washed followed by detection of bound phage using a horse radish conjugated anti-M13 antibody.

[2] = target: T2, PSMA Fab (006 PSMA Fab); experiment: clonal phage supernatant on biotinylated PSMA Fab captured on neutravidin plate, anti-M13-HRP detection;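 note: before phage were added, wells received PSMA antigen in blocking buffer or blocking buffer alone, with no wash in between, followed by a short phage incubation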
T2 construct: also called Anti-PSMA Fab
Method: as §1

[3] = target: T2, PSMA Fab (006 PSMA Fab); experiment: phage ELISA on captured PSMA Fab pre-incubated with the competitor PSMA antigen, anti-M13-HRP detection
Method: as §1

[4] = target: T3, 006 PSMA Fab (biotinylated (site not stated)); experiment: clonal phage ELISA; biotinylated PSMA Fab on neutravidin plate, blocking buffer alone, anti-M13-HRP detection;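 note: crude clonal phage supernatants added without washing to wells preincubated with PSMA antigen or with blocking buffer alone, briefly incubated, then washed before bound phage detection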
T3 construct: also called Anti-PSMA Fab

[5] = target: T3, 006 PSMA Fab; experiment: clonal phage ELISA; biotinylated PSMA Fab on neutravidin plate pre-incubated with PSMA antigen as competitor, anti-M13-HRP detection
Method: as §1

[6] = target: T4, PSMA Fab; experiment: clonal phage ELISA on captured PSMA Fab, wells pre-incubated with PSMA antigen as competitor
T4 construct: also called Anti-PSMA Fab; 006 PSMA Fab
Method: as §1

[7] = target: T4, PSMA Fab; experiment: clonal phage ELISA on biotinylated PSMA Fab captured on neutravidin plates, anti-M13 HRP detection;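 note: crude clonal phage supernatants tested, before phage were added, wells were pretreated with PSMA antigen in blocking buffer or with blocking buffer only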
Method: as §1

Binder	Phage binding ELISA signal, Anti-PSMA Fab [2]	phage binding ELISA signal, Anti-PSMA Fab in the presence of PSMA [3]	Phage binding ELISA signal, Anti-PSMA Fab [4]	Phage binding ELISA signal, Anti-PSMA Fab in the presence of PSMA antigen [5]	other results
B1	–	–	–	–	Phage binding ELISA signal, Anti-PSMA Fab [1]: 0.977
B2	–	–	–	–	Phage binding ELISA signal, Anti-PSMA Fab [1]: 0.965
STTLCRPAWMCTGM [Phage-3916]	1.02	0.0655	–	–	–
B3	–	–	1.09	0.0639	–
DRVLCTPTWMCEGF [Phage-3917]	1.01	0.0642	–	–	–
B4	–	–	–	–	Phage binding ELISA signal, Anti-PSMA Fab [1]: 0.972
ESKLCIPDWMCILL (tested as crude phage supernatant) [Phage-3881]	–	–	–	–	phage binding ELISA signal [6]: 0.0662; phage binding ELISA signal [7]: 1.13
B5	–	–	1.1	0.0774	–
B6	–	–	1.1	0.0585	–
B7	–	–	–	–	Phage binding ELISA signal, Anti-PSMA Fab [1]: 0.966
B8	–	–	1.09	0.0848	–
B9	–	–	1.12	0.128	–
B10	–	–	1.11	0.0613	–
B11	–	–	–	–	Phage binding ELISA signal, Anti-PSMA Fab [1]: 0.96
B12	–	–	1.09	0.0638	–
VTPACMPRWMCEGF (tested as crude phage supernatant) [Phage-3879]	–	–	–	–	phage binding ELISA signal [6]: 0.0611; phage binding ELISA signal [7]: 1.13
YQMLCVPEWMCSGL [Phage-3915]	1.02	0.0874	–	–	–
B13	–	–	1.11	0.0689	–
B14	–	–	1.1	0.0801	–
B15	–	–	–	–	Phage binding ELISA signal, Anti-PSMA Fab [1]: 0.972
GAYTCVPAWMCQGF [Phage-3922]	0.979	0.0665	–	–	–
IEAQCRPVWMCHGF [Phage-3923]	0.978	0.0779	–	–	–

Binder	Phage binding ELISA signal, Anti-PSMA Fab [2]	phage binding ELISA signal, Anti-PSMA Fab in the presence of PSMA [3]	Phage binding ELISA signal, Anti-PSMA Fab [4]	Phage binding ELISA signal, Anti-PSMA Fab in the presence of PSMA antigen [5]	other results
IEKQCVPQWMCDGF (tested as crude phage supernatant) [Phage-3880]	–	–	–	–	phage binding ELISA signal [6]: 0.0745; phage binding ELISA signal [7]: 1.13
B16	–	–	–	–	phage binding ELISA signal [6]: 0.0618; phage binding ELISA signal [7]: 1.12
B17	–	–	–	–	Phage binding ELISA signal, Anti-PSMA Fab [1]: 0.971
B18	–	–	1.08	0.0619	–
B19	–	–	1.11	0.0809	–
AQKLCEPMWMCVGF [Phage-3918]	1	0.064	–	–	–
B20	–	–	1.1	0.062	–
B21	–	–	1.1	0.0789	–
MSPMCSPSWMCMGF [Phage-3919]	0.993	0.0911	–	–	–
YNQYCTPLWMCEGF [Phage-3924]	0.977	0.0796	–	–	–
GQIMCIPTWMCSGF [Phage-3921]	0.98	0.0809	–	–	–
B22	–	–	–	–	Phage binding ELISA signal, Anti-PSMA Fab [1]: 0.97
B23	–	–	1.08	0.0633	–
ESRACVPNWMCHGL [Phage-3911]	1.03	0.06	–	–	–
TAPMCNPPWMCYGL (tested as crude phage supernatant) [Phage-3878]	–	–	–	–	phage binding ELISA signal [6]: 0.0701; phage binding ELISA signal [7]: 1.13
FGVKCEPRWMCNGF [Phage-3914]	1.02	0.0693	–	–	–
EDALCVPQWMCSGF (tested as crude phage supernatant) [Phage-3877]	–	–	–	–	phage binding ELISA signal [6]: 0.0648; phage binding ELISA signal [7]: 1.14
ATVRCMPMWMCHGF [Phage-3912]	1.03	0.0901	–	–	–
B24	–	–	–	–	Phage binding ELISA signal, Anti-PSMA Fab [1]: 0.97
AQVLCVPNWMCTGF [Phage-3920]	0.985	0.0618	–	–	–
MDVWCVPQWMCDGF (tested as crude phage supernatant) [Phage-3882]	–	–	–	–	phage binding ELISA signal [6]: 0.0645; phage binding ELISA signal [7]: 1.12
QNFHCVPQWMCDWL [Phage-3913]	1.02	0.0986	–	–	–
